Laboratory results from patent US20250177453A1 (Harvard, published 2025).

Target: T1, human PD-L1 expressed on the surface of SC-islet cells (human, UniProt Q9NZQ7 19-290)
T1 construct: whole, on cells; also called PD-L1 on B2P SC-islet cells
Assay: flow cytometry, labelled PD-1-Fc on dissociated SC-islet cells

T1 sequence (Q9NZQ7 19-290): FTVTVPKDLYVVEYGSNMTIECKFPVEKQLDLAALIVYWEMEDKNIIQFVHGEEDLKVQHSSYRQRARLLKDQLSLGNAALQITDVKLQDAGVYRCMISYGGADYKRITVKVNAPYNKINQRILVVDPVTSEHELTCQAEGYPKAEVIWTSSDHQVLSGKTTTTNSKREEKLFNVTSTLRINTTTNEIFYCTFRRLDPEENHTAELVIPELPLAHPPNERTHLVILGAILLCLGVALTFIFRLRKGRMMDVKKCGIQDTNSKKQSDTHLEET

B1: PE-conjugated mouse PD1-Fc (Fc fusion, UniProt Q02242 25-167, looked up)
chain: LEVPNGPWRSLTFYPAWLTVSEGANATFTCSLSNWSEDLMLNWNRLSPSNQTEKQAAFCNGLSQPVQDARFQIIQLPNRHDFHMNILDTRRNDSGIYLCGAISLHPKAKIEESPGAELVVTERILETSTRYPSPSPKPEGRFQ
modifications: PE-conjugated (fluorescently labelled)
notes: It says only 'fluorescently labelled, soluble' PD-1-Fc; also called soluble mouse PD-1-Fc; soluble mouse PD-1; not shown: Fc part
binding result: binds
